Residue numbers refer to the chain shown, from its start. Where “and” joins values, the source holds several entries; their conditions need not be identical. Equal values may be shown once. Values belong to the binder of their own block, whether it stands above or below them.
What was measured:
[1] = biological target: T1, human CD40 (BMS, CY24FEB06-01) (human, UniProt P25942 21-193); test: bead RBA, competition with IZ-CD40L
T1 construct: Soluble reagent of the bead and ELISA RBA; It is detected with an anti-human IgG (Fc) mAb, so it may be a CD40-Ig fusion

human CD40 = human CD40 (human, UniProt P25942 21-277); test: cell-based or functional assay
Macaca fascicularis CD40 = biological target: T2, Macaca fascicularis CD40 (Macaca fascicularis (cynomolgus monkey), UniProt P25942 21-277 (human entry)); test: cell-based or functional assay
T2 chain: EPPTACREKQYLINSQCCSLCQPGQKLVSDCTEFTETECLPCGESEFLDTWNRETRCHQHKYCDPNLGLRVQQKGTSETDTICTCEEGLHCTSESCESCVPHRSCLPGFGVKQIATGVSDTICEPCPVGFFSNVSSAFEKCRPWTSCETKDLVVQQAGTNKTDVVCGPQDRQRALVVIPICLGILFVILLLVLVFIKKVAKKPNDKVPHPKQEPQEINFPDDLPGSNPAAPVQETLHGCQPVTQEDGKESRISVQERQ

[2] = biological target: human CD40 on RAMOS human B cells (human, UniProt P25942 21-277); test: cell-based or functional assay
[3] = biological target: T3, human CD40 (BMS, CY24FEB06-01) (human, UniProt P25942 21-193); test: ELISA RBA, competition with IZ-CD40L for soluble human CD40;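 also: Neutravidin-coated 384-well plates, dAb–human CD40 complex incubated 2 h at room temperature, read-out as absorbance at 450 nm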
T3 construct: Soluble human CD40 reagent of the ELISA RBA
Protocol: Clear walled High Bind, 384-well plates (Corning, UK) were coated with 25 μl of 1 μg/ml Neutravidin in 0.2 M carbonate-bicarbonate buffer, pH 9.4 overnight at 4° C. The following day, assay plates were washed with 0.1% (v/v) Tween PBS buffer, blocked with 1% (w/v) BSA in PBS for 1 hour at room temperature and washed again. […] Following washing of the assay plate, the dAb:human CD40 complex was incubated in the assay plate at room temperature for 2 hours with gentle agitation. […] Absorbance signal was measured using a SpectraMax® M5e plate reader (Molecular Devices) at 450 nm following neutralization with 1M HCl solution.

[4] = biological target: T4, human CD40 (W109L, L121P) Fc fusion (human, UniProt P25942 21-193); test: SPR ProteOn XPR36;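 also: surface plasmon resonance with CD40-Fc fusions captured through their Fc on an anti-human IgG chip, sensorgrams reference-subtracted against surfaces lacking CD40-Fc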
T4 construct: As m1 with W109L and L121P; also called hCD40-M4; not shown: human IgG1 Fc

[5] = biological target: T5, human CD40 (H76R, W109L, L121P) Fc fusion (human); test: SPR ProteOn XPR36;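 also: surface plasmon resonance with CD40-Fc fusions captured through their Fc on an anti-human IgG chip, sensorgrams reference-subtracted against surfaces lacking CD40-Fc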
T5 construct: As m1 with H76R, W109L and L121P; also called hCD40-M5; not shown: human IgG1 Fc
T5 chain: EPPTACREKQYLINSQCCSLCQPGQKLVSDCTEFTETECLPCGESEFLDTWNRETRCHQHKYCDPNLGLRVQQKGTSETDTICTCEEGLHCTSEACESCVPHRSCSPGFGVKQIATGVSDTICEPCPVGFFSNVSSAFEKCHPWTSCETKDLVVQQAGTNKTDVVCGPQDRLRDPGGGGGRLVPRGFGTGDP

[6] = biological target: T6, wild type cynomolgus monkey CD40 Fc fusion (cynomolgus monkey; human); test: SPR ProteOn XPR36;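 also: surface plasmon resonance with CD40-Fc fusions captured through their Fc on an anti-human IgG chip, sensorgrams reference-subtracted against surfaces lacking CD40-Fc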
T6 construct: also called wt-cyno-CD40; wt-cCD40; not shown: human IgG1 Fc
T6 chain: T5 chain with A95S, S106L, H142R, L172Q

B2: BMS3h-38-2 (other)
VH: EVQLLASGGGLVQPGGSLRLSCAASGFTFEEEEMIWVRQAPGKGLEWVSAISGSGGSTYYADSVKGRFTISRDNSKNTLYLQMNSLRAEDTAVYYCGKEPFRYDYWGQGTLVTVSS
CHO-hCD40L-driven DC Activation IL-12 EC50 (human CD40): 289 nM
CHO-hCD40L-driven Human B Cell Proliferation EC50 (human CD40): 723 nM
T-B cell MLR EC50 (human CD40): 986 nM
hIZCD40L-driven Human B Cell Proliferation EC50 (human CD40): 10 nM
hIZCD40L-driven Cyno B Cell Proliferation EC50 (Macaca fascicularis CD40): > 7000 nM

B6: BMS3h-56-201 (other)
VH: EVQLLESGGGLVQPGGSLRLSCAASGFTFRDYEMWWVRQAPGKGLERVSAINPQGTRTYYADSVKGRFTISRDNSKNTLYLQMNSLRAEDTAVYYCAKLPFYFQEWGQGTLVTVSS
notes: domain antibody (dAb): single human VH domain
EC50 ICAM1 cell assay [2]: 10 nM
EC50 [3]: 3.7 nM and 2.3 nM

B7: BMS3h-56-1 (other)
VH: B6 VH with Y102T, Q104E, E105D
notes: domain antibody (dAb), single VH domain; also called 3h-56-l
binding result [4]: no binding (tested: 405 nM)
binding result [5]: no binding (tested: 405 nM)
binding result [6]: no binding (tested: 405 nM)

B8: BMS3h-56 (other)
VH: B6 VH with Y102I, Q104D, E105Y
notes: dAb, single VH
EC50 [1]: 1000 nM and 500 nM

B9: BMS3h-56-203 (other)
VH: B6 VH with Y102F, Q104E
notes: as for B6
EC50 ICAM1 cell assay [2]: 70 nM
EC50 [3]: 5.2 nM and 4.3 nM

B11: BMS3h-56-202 (other)
VH: B6 VH with F101T, Q104S, E105D, W106R
EC50 ICAM1 cell assay [2]: 80 nM

B12: BMS3h-56-206 (other)
VH: B6 VH with Y95H, F101M, Y102F, Q104E, E105D, S116N
EC50 ICAM1 cell assay [2]: 5 nM

B15: BMS3h-56-215 (other)
VH: B6 VH with Q54H, T56S, R57L, Y102T, Q104D, E105D
notes: as for B6
EC50 ICAM1 cell assay [2]: 40 nM
EC50 [3]: 3.2 nM and 4.6 nM

B18: BMS3h-37 (other)
VH: EVQLLESGGGLVQPGGSLRLSCAASGFTFEWYEMQWVRQAPGKGLEWVSAISGDGYRTYYADSVKGRFTISRDNSKNTLYLQMNSLRAEDTAVYYCAKELGYFDYWGQGTLVTVSS
notes: dAb, single VH
EC50 [1]: 100 nM and 200 nM

B19: BMS3h-106 (other)
VH: EVQLLESGGGLVQPGGSLRLSCAASGFTFSTYHMQWVRQAPGKGLEWVSMIDADGLGTYYADSVKGRFTISRDNSKNTLYLQMNSLRAEDTAVYYCAKPGPQFGQFDYWGQGTLVTVSS
hIZCD40L-driven Human B Cell Proliferation EC50 (human CD40): 437 nM
hIZCD40L-driven Cyno B Cell Proliferation EC50 (Macaca fascicularis CD40): > 7000 nM

B21: BMS3h-37 (other)
VH: B18 VH
hIZCD40L-driven Human B Cell Proliferation EC50 (human CD40): 3400 nM
hIZCD40L-driven Cyno B Cell Proliferation EC50 (Macaca fascicularis CD40): > 7000 nM

B22: BMS3h-37-2 (other)
VH: B18 VH with Q39R, Q108R
CHO-hCD40L-driven DC Activation IL-12 EC50 (human CD40): 13 nM
T-B cell MLR EC50 (human CD40): 198 nM
hIZCD40L-driven Human B Cell Proliferation EC50 (human CD40): 5 nM
hIZCD40L-driven Cyno B Cell Proliferation EC50 (Macaca fascicularis CD40): > 7000 nM

B23: BMS3h-38 (other)
VH: B2 VH with A6E, G97A, Y103F
hIZCD40L-driven Human B Cell Proliferation EC50 (human CD40): 2800 nM
hIZCD40L-driven Cyno B Cell Proliferation EC50 (Macaca fascicularis CD40): > 7000 nM

B24: BMS3h-38 (other)
VH: B2 VH with A6E, G97A, Y103F
notes: dAb, single VH
EC50 [1]: 600 nM and 650 nM

B25: BMS3h-41 (other)
VH: B2 VH with A6E, E30T, E32Y, A50S, S54N, G56A, S57N, G97A, F101L, Y103F
notes: dAb, single VH
EC50 [1]: 2000 nM and 1600 nM

Other lines, results leading:

EC50 [1]: 1000 nM
B1: BMS3h-193 (other)
VL: DIQMTQSPSSLSASVGDRVTITCRASQTIERRLNWYQQKPGKAPKLLIYLASRLQSGVPSRFSGSGSGTDFTLTISSLQPEDFATYYCHQYASPPLTFGQGTKVEIKR
notes: dAb, single VK

hIZCD40L-driven Human B Cell Proliferation EC50 (human CD40): > 7000 nM
hIZCD40L-driven Cyno B Cell Proliferation EC50 (Macaca fascicularis CD40): > 7000 nM
B3: BMS3h-107 (other)
VH: EVQLLESGGGLVQPGGSLRLSCAASGFTFSGYDMQWVRQAPGKGLEWVSTISASGVFTYYADSVKGRFTTSRDNSKNTLYLQMNSLRAEDTAVYYCAKYPNRFALNNFDYWGQGTLVTVSS

hIZCD40L-driven Human B Cell Proliferation EC50 (human CD40): 55 nM
hIZCD40L-driven Cyno B Cell Proliferation EC50 (Macaca fascicularis CD40): > 7000 nM
B4: BMS3h-131-2 (other)
VL: DIQMTQSPSSLSASVGDRVTITCRADSSILWALAWYQQKPGKAPKLLIESSSGLQSGVPSRFSGSGSGTDFTLTISSLQPEDFATYYCVQNAVWPGTFGQGTKVEIKR

EC50 [1]: 500 nM and > 1000 nM
B5: BMS3h-131 (other)
VL: B4 VL with D26N, V93G
notes: dAb, single VK

binding result [4]: no binding (tested: 405 nM)
binding result [5]: no binding (tested: 405 nM)
binding result [6]: no binding (tested: 405 nM)
B10: BMS3h-56-5 (other)
VH: B6 VH with K65M, Y102T, Q104D, E105D
notes: domain antibody (dAb), single VH domain

binding result [4]: no binding (tested: 405 nM)
binding result [5]: no binding (tested: 405 nM)
binding result [6]: no binding (tested: 405 nM)
B13: BMS3h-56-2 (other)
VH: B6 VH with Y102T, Q104D, E105D
notes: as for B10

binding result [4]: no binding (tested: 405 nM)
binding result [5]: no binding (tested: 405 nM)
binding result [6]: no binding (tested: 405 nM)
B14: BMS3h-56-217 (other)
VH: B6 VH with Q54W, T56S, R57L, Y102T, Q104E, E105D
notes: as for B10

binding result [4]: no binding (tested: 405 nM)
binding result [5]: no binding (tested: 405 nM)
binding result [6]: no binding (tested: 405 nM)
B16: BMS3h-56-202 (other)
VH: B6 VH with F101T, Q104S, E105D, W106R
notes: as for B10

binding result [4]: no binding (tested: 405 nM)
binding result [5]: no binding (tested: 405 nM)
binding result [6]: no binding (tested: 405 nM)
B17: BMS3h-56-206 (other)
VH: B6 VH with Y95H, F101M, Y102F, Q104E, E105D, S116N
notes: as for B10

EC50 [1]: 3700 nM and 3000 nM
B20: BMS3h-202 (other)
VH: EVQLLESGGGLVQPGGSLRLSCAASGFTFPTAEMVWVRQAPGKGLEWVSSISASGGSTYYADSVKGRFTISRDNSKNTLYLQMNSLRAEDTAVYYCAKEPVSYVATFDYWGQGTLVTVSS
notes: dAb, single VH

hIZCD40L-driven Human B Cell Proliferation EC50 (human CD40): 360 nM
hIZCD40L-driven Cyno B Cell Proliferation EC50 (Macaca fascicularis CD40): > 7000 nM
B26: BMS3h-197 (other)
VH: EVQLLESGGGLVQPGGSLRLSCAASGFTFGSAAMDWVRQAPGKGLEWVSSINDMGSNTYYADSVKGRFTISRDNSKNTLYLQMNSLRAEDTAVYYCAKQGGRFDYWGQGTLVTVSS

EC50 [1]: 30 nM
B27: BMS3h-197 (other)
VH: B26 VH
notes: dAb, single VH

— patent publication US20200199244A1 (published 2020)
